Results as given in patent US8563700B2, “Synergistic effects” (ImmunoGen, Inc., priority 2008, dated 2013).

Tests used:
Format in all cases: in vivo
[1] = test system: H929 human multiple myeloma cells; assay: huN901-DM1 and bortezomib in H929 multiple myeloma large tumor xenografts; conditions: for activity according to NCI standards: huN901-DM1 50 μg/kg, bortezomib 0.5 mg/kg, as single agents or combined
Experimental: (§1) Mice were inoculated with human multiple myeloma tumor cell lines and allowed to become established (average tumor size of about 100 mm^3) prior to treatment. Conjugate dosing is described based on DM1 concentration. Efficacy is reported as both the % of tumor growth for treated vs. control (% T/C) and log cell kill (LCK) determined from the tumor doubling time and the tumor growth delay due to the treatment.
The anti-tumor effect of a combination of huN901-DM1 and bortezomib was evaluated in an established subcutaneous xenograft model of multiple myeloma. SCID mice (54 animals) were inoculated with H929 human multiple myeloma cells (1×10^7 cells/animal) injected subcutaneously into the right shoulder of the mice. […] Two groups of mice were treated with the single agent huN901-DM1 at DM1 doses of 50 μg/kg and 100 μg/kg, respectively (day 34 post tumor cell inoculation) administered intravenously. Two groups of mice were treated with the single agent bortezomib at a 0.5 mg/kg low dose and 1 mg/kg high dose (days 35 and 38 post tumor cell inoculation) administered intravenously. Four combination groups were evaluated, with combinations of each dose of huN901-DM1 plus low- or high-dose bortezomib using the same schedules used for single agent treated groups. A control group of animals received PBS administered intravenously (day 34 post tumor cell inoculation). Tumor growth was monitored by measuring tumor size twice per week. Tumor size was calculated with the formula: length×width×height×½.

[2] = test system: OPM2 human multiple myeloma cells; assay: huN901-DM1 and bortezomib in established subcutaneous OPM2 multiple myeloma xenografts; conditions: SCID mice
From the text: as §1
The anti-tumor effect of a combination of huN901-DM1 and bortezomib (Velcade, Millennium Pharmaceuticals) was evaluated in an established subcutaneous xenograft model of multiple myeloma. SCID mice (36 animals) were inoculated with OPM2 human multiple myeloma cells (1×10^7 cells/animal) injected subcutaneously into the right shoulder of the mice. […] Two groups of mice were treated with the single agent huN901-DM1 at DM1 doses of 100 μg/kg and 200 μg/kg, respectively (day 12 post tumor cell inoculation) administered intravenously. A third group of mice was treated with the single agent bortezomib at a dose of 1 mg/kg (days 13 and 16 post tumor cell inoculation), administered intravenously. Two groups were treated with combinations of huN901-DM1 (100 μg/kg or 200 μg/kg) plus bortezomib using the same doses, schedules and administration routes used for single agent treated groups. A control group of animals received PBS administered intravenously (day 12 post tumor cell inoculation). Tumor growth was monitored by measuring tumor size twice per week. Tumor size was calculated with the formula: length×width×height×½.

[3] = test system: OPM2 human multiple myeloma cells; assay: huN901-DM1 and lenalidomide in established subcutaneous OPM2 multiple myeloma xenografts; conditions: combination same doses; for LCK / T/C: SCID mice, lenalidomide 100 mg/kg i.p. days 16-20, 23-27; for LCK: huN901-DM1 200 μg/kg i.v. day 16; for T/C: huN901-DM1 200 μg/kg i.v. single injection day 16
Experimental: as §1
The anti-tumor effect of a combination of huN901-DM1 and lenalidomide was evaluated in an established subcutaneous xenograft model of multiple myeloma. SCID mice (20 animals) were inoculated with OPM2 human multiple myeloma cells (1×10^7 cells/animal) injected subcutaneously into the right shoulder of the mice. When the tumors reached about 130 mm^3 in size (16 days after tumor cell inoculation), the mice were randomly divided into four groups (5 animals per group). One group of mice was treated with the single agent huN901-DM1 (200 μg/kg, day 16 post tumor cell inoculation) administered intravenously. […] A third group was treated with a combination of huN901-DM1 plus lenalidomide using the same doses, schedules and administration routes used for single agent treated groups. A control group of animals received PBS administered intravenously (day 16 post tumor cell inoculation). Tumor growth was monitored by measuring tumor size twice per week. Tumor size was calculated with the formula: length×width×height×½.

[4] = test system: MOLP-8 human multiple myeloma cells; conditions: Balb/c nude mice; huN901-DM1 200 μg/kg DM1 i.v. single injection day 22; melphalan 12 mg/kg i.p. single injection day 23; combination same doses
From the text: as §1
(§2) Tumor growth was monitored by measuring tumor size twice per week. Tumor size was calculated with the formula: length×width×height×½.

[5] = test system: MOLP-8 human multiple myeloma cells; assay: huN901-DM1 and thalidomide in established subcutaneous MOLP-8 multiple myeloma xenografts; conditions: SCID mice; huN901-DM1 100 μg/kg, thalidomide 200 mg/kg, as single agents or combined
From the text: as §1, §2

[6] = test system: MOLP-8 human multiple myeloma cells; assay: Triple combination huN901-DM1, lenalidomide plus low-dose dexamethasone in MOLP-8 xenografts
Experimental: Lenalidomide (100 mg/kg, qd×5×2) was administered at days 1-5 and 8-12. […]
as §1
The anti-tumor effect of a triple-combination of huN901-DM1 and lenalidomide plus low-dose dexamethasone was evaluated in an established subcutaneous xenograft model of multiple myeloma. SCID mice were inoculated with MOLP-8 human multiple myeloma cells (1.5×10^7 cells/animal) injected subcutaneously into the right shoulder of the mice. […] Treatments were initiated on day 13 post inoculation, indicated as day 1 of treatment. […] A second group of mice was treated with the combination of lenalidomide/low-dose dexamethasone (lenalidomide at 100 mg/kg, administered as a suspension in 1% carboxymethylcellulose/PBS by intraperitoneal injection on days 1-5, 8-12; dexamethasone at 1.5 mg/kg, administered by subcutaneous injection on days 1 and 8). A third group was treated with the triple-combination of huN901-DM1 plus lenalidomide/dexamethasone using the same doses, schedules and administration routes used for individual treatment groups. A control group of animals received PBS administered intravenously (days 1 and 8). Tumor growth was monitored by measuring tumor size twice per week. Tumor size was calculated with the formula: length×width×height×½.

[7] = bortezomib single agent, high dose 1.0 mg/kg
[8] = huN901-DM1 200 μg/kg, lenalidomide 100 mg/kg

In the case of `CC(C)C[C@H](NC(=O)[C@H](Cc1ccccc1)NC(=O)c1cnccn1)B(O)O` [bortezomib], the T/C [1, 7] is reported as 11%, the activity [1, 7] is reported as “active” and the “tumor-free mice at day 119” value [1, 7] is reported as 1 of 6. The “activity according to NCI standards” value [1] was “inactive” and the “tumor-free mice at day 91” value ([2]; bortezomib single agent 1 mg/kg i.v. days 13 and 16) was “no tumor-free mice”.

For `Nc1cccc2c1CN(C1CCC(=O)NC1=O)C2=O` (stereo not shown) [lenalidomide, reference compound], the LCK [3] was 0.9 and the T/C [3] was 28%.

`N[C@@H](Cc1ccc(N(CCCl)CCCl)cc1)C(=O)O` [melphalan, reference compound] gave a tumor growth delay [4] of 14 days.

In the case of `O=C1CCC(N2C(=O)c3ccccc3C2=O)C(=O)N1` (stereo not shown) [thalidomide, reference compound], the “activity according to NCI standards” value [5] is reported as “inactive”.

B1: huN901-DM1: humanized antibody N901-maytansinoid conjugate (huN901-DM1); N901 binds to CD56 (conjugate, chains of the INN, looked up)
VH: QVQLVESGGGVVQPGRSLRLSCAASGFTFSSFGMHWVRQAPGKGLEWVAYISSGSFTIYYADSVKGRFTISRDNSKNTLYLQMNSLRAEDTAVYYCARMRKGYAMDYWGQGTLVTVSS
VL: DVVMTQSPLSLPVTLGQPASISCRSSQIIIHSDGNTYLEWFQQRPGQSPRRLIYKVSNRFSGVPDRFSGSGSGTDFTLKISRVEAEDVGVYYCFQGSHVPHTFGQGTKVEIK
modifications: DM1 maytansinoid conjugate
Work on B1 yielded a tumor growth delay [4] of 11 days, an LCK [3] of 0.9 and a T/C [3] of 26%. The activity [3, 8] was “active”, the “tumor-free mice at the end of the study” value [3, 8] was “no tumor-free survivors” and the “activity according to NCI standards” value [1] was “inactive”. For the same molecule, the activity ([6]; MOLP-8 tumors, doses as in Example 7) was “active”, the T/C ([6]; SCID mice, huN901-DM1 150 ng/kg, qw×2 i.v., lenalidomide 100 mg/kg i.p. days 1-5, 8-12, dexamethasone 1.5 mg/kg s.c. days 1 and 8) was 33% and the LCK ([6]; SCID mice, huN901-DM1 150 μg/kg, qw×2 i.v., lenalidomide 100 mg/kg i.p. days 1-5, 8-12, dexamethasone 1.5 mg/kg s.c. days 1 and 8) was 0.5. For the same molecule, the regressions ([6]; huN901-DM1 alone or lenalidomide/dexamethasone groups) was “no regressions”, the “activity according to NCI standards” value [5] was “inactive” and the “tumor-free mice at day 91” value ([2]; huN901-DM1 100 μg/kg i.v. day 12, alone or plus bortezomib 1 mg/kg i.v. days 13 and 16) was 1 of 6. For the same molecule, the “tumor-free mice at day 91” value ([2]; huN901-DM1 200 μg/kg i.v. day 12, alone or plus bortezomib 1 mg/kg i.v. days 13 and 16) was 3 of 6.
